Source: paper PMC10338859
pKd: −log10 of the molar value.

Experiments:
[1] = tested on: GR20, poly(GR) dipeptide repeat peptide; test: BLI; details: apparent Kd, 1:1 equilibrium fit; BLI: 10 mM Tris-HCl, 1 mM disodium EDTA, pH 8.0, 150 mM NaCl, 0.1 mg/ml BSA, 0.01% Tween-20, 25 C; RNA on streptavidin …
[2] = tested on: PR20, poly(PR) dipeptide repeat peptide; test: BLI; details: apparent Kd, 1:1 equilibrium fit; BLI: 10 mM Tris-HCl, 1 mM disodium EDTA, pH 8.0, 150 mM NaCl, 0.1 mg/ml BSA, 0.01% Tween-20, 25 C; RNA on streptavidin …

Sequence	pKd [1]	pKd [2]
GAGAAGAGAAGAGAAGAGAAGAGAA [poly(GAAGA) RNA]	8.44	8.59
AUAAUAUAAUAUAAUAUAAUAUAAU [poly(AUAAU) RNA]	8.21	7.95
